Patent US20170088610A1 (RINAT NEUROSCIENCE, published 2017)
Substitutions are numbered along the chain they refer to. In names and notes the source's numbering stands. Read-outs that look alike come from different tables or passages of the source. Each block holds one binder with its values, some of them ahead of it.

Experiments:
[1] = biological target: T1, human nerve growth factor (human, UniProt P01138 122-241); test: BIAcore SPR, Fab over immobilised human NGF
T1 construct: Immobilised on CM5 chips for BIAcore, soluble in neuron survival assays; also called human NGF; hNGF
T1 sequence (P01138 122-241 limits assumed): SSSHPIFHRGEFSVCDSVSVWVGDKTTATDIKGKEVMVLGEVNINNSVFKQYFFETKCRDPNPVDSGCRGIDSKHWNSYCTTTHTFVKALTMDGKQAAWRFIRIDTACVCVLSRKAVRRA

[2] = biological target: T1, human nerve growth factor; test: BIAcore SPR screen, Fab over immobilised human NGF
Experimental: (§1) A screening BIAcore assay was optimized to determine the affinity of Fab clones from libraries. Supernatants of small culture lysates were injected at […] for 2 min. Dissociation times of 10 to 15 minutes were used for determination of a single exponential dissociation rate (koff) using BIAevaluation software. […] Clones showing improved (slower) koff values were expressed at large scale and full kinetic parameters, kₒₙ and koff, were determined on purified protein.

[3] = biological target: T1, human nerve growth factor; test: BIAcore SPR screen, Fab over immobilised human NGF; KD calculated from koff with kon 4e4 M-1s-1
Experimental: as §1

[4] = biological target: T1, human nerve growth factor; test: cell-based or functional assay
[5] = biological target: T2, rat nerve growth factor (rat, UniProt P25427 122-241); test: cell-based or functional assay
T2 sequence (P25427 122-241 limits assumed): as the sequence (P01138 122-241 limits assumed) above, with S3T, I6V, R9M, M37T, D60A, D65E, M92T, G94D, V117A, A120G counted along it

[6] = biological target: T1, human nerve growth factor; test: BIAcore SPR, purified Fab over immobilised human NGF (100 RU); purified Fab E3, 100 RU NGF on chip
Experimental: (§2) Affinities of anti-NGF Fabs and monoclonal antibodies were determined using the BIAcore3000™ surface plasmon resonance (SPR) system (BIAcore, INC, Piscaway N.J.). CM5 chips were activated with N-ethyl-N′-(3-dimethylaminopropyl)-carbodiinide hydrochloride (EDC) and N-hydroxysuccinimide (NETS) according to the supplier's instructions. Human NGF was diluted into 10 mM sodium acetate pH 4.0 and injected over the activated chip at a concentration of 0.005 mg/mL. Using variable flow time across the individual chip channels, two ranges of antigen density were achieved: 100-200 response units (RU) for detailed kinetic studies and 500-600 RU for screening assays. The chip was blocked with ethanolamine. […] HBS-EP buffer (0.01M HEPES, pH 7.4, 0.15 NaCl, 3 mM EDTA, 0.005% Surfactant […]) was used as running buffer for all the BIAcore assays.
(§3) Briefly, several concentrations of antibodies (Fabs) were injected for 2 minutes onto a CM5 chip with 100 RU of immobilized human NGF on it, and permitted to dissociate for 1800 seconds. […] Data was analyzed using BIAevaluation software following the manufacturer's instructions.

[7] = biological target: T1, human nerve growth factor; test: BIAcore SPR, Fab over immobilised human NGF (100 RU)
Experimental: as §2, §3

[8] = biological target: T1, human nerve growth factor; test: BIAcore SPR, Fabs over immobilised human NGF
Experimental: as §2, §3

[9] = biological target: T1, human nerve growth factor; test: cell-based or functional assay; remark: listed apart in the source
[10] = biological target: T2, rat nerve growth factor; test: cell-based or functional assay; remark: listed apart in the source
[11] = biological target: T1, human nerve growth factor; test: BIAcore SPR screen, Fab over immobilised human NGF; KD calculated from koff with kon 4e4 M-1s-1; screening KD calculated from koff with the fixed kon 4e4; paragraph 422 gives about 1 nM
[12] = biological target: T1, human nerve growth factor; test: BIAcore SPR screen, Fab over immobilised human NGF; remark: listed apart in the source
[13] = biological target: T1, human nerve growth factor; test: BIAcore SPR screen, Fab over immobilised human NGF; KD calculated from koff with kon 4e4 M-1s-1; 8L2-6D5 template, not H19-L129 template
Experimental: as §2, §1

[14] = biological target: T1, human nerve growth factor; test: BIAcore SPR screen, Fab over immobilised human NGF; KD calculated from koff with kon 4e4 M-1s-1; remark: listed apart in the source
Experimental: as §1
(§4) For affinity screening experiments, each library was further paired with the corresponding CDR-grafted light or heavy chain (for example, the H1/H2 library was paired with CDR-grafted light chain), the antibody was expressed, and affinity to human NGF of the individual clones was screened using the BIACORE surface plasmon resonance (SPR) system (BIAcore, Inc. Piscataway, N.J.) according to the manufacturer's instructions and as described above. koff, kₒₙ and KD were determined. Antibody clones were ranked based on koff rates, since generally most variation in affinity is seen in koff rates, and further because koff rates are independent of antibody concentration.

[15] = biological target: T1, human nerve growth factor; test: BIAcore SPR screen, Fab over immobilised human NGF; remark: listed apart in the source
Experimental: as §1, §4

[16] = biological target: T1, human nerve growth factor; test: BIAcore SPR screen, Fab over immobilised human NGF; KD calculated from koff with kon 4e4 M-1s-1; remark: listed apart in the source
Experimental: as §1
(§5) 20-80 clones from each small library were screened using BIAcore analysis as described herein. Samples were simultaneously analyzed by BIAcore for binding affinity to NGF in one channel of the BIAcore chip and for presence of Fab by binding to a penta-histag antibody in another channel of the sensor chip, to detect the his tag at the C terminus of the heavy chain. Clones that expressed protein were classified as having the same affinity, worse affinity, better affinity or no binding, using koff to classify: The results of this analysis are shown in Table 5.

[17] = biological target: T1, human nerve growth factor; test: BIAcore SPR screen, Fab over immobilised human NGF; remark: listed apart in the source
Experimental: as §1, §5

[18] = biological target: T1, human nerve growth factor; test: BIAcore SPR, purified Fab over immobilised human NGF (100 RU); purified Fab 3C, 100 RU NGF on chip
Experimental: as §2, §3

Kd [1]: ~38 nM
B1: 8L2-4D5 (CDR-grafted antibody, template) (Fab, V domains shown)
VH: QVQLQESGPGLVKPSETLSLTCTVSGFSLIGYDINWIRQPPGKGLEWIGMIWGDGTTDYNSALKSRVTISVDTSKNQFSLKLSSVTAADTAVYYCARGGYYYGTSYYFDYWGQGTLVTVS
VL: DIQMTQSPSSLSASVGDRVTITCRASQDISNHLNWYQQKPGKAPKLLIYYISRFHSGVPSRFSGSGSGTDFTFTISSLQPEDIATYYCQQSKTLPYTFGQGTKLEIKR

koff [2]: 4.7e-05 s⁻¹ | Kd [3]: 1.1 nM
B2: H19-L129 template Fab with L_S91E; L_K92S and H_Y101W; H_G103S (Fab, V domains shown)
VH: B1 VH with I34L, M50I, L63V, V71K, Y101W, G103S
VL: B1 VL with D28S, H32N, I51T, S91E, K92S
notes: See note of m8

koff [6]: ~4.2e-05 s⁻¹ | Kd [7]: ≤ 0.07 nM | koff [7]: < 4e-05 s⁻¹ | kon [7]: 600000 M⁻¹ s⁻¹ | koff [2]: 1.2e-05 s⁻¹ | fold higher binding affinity than parent mouse antibody 911 [8]: ~50 fold | Kd [3]: 0.3 nM
B3: antibody E3 (Fab) (Fab, V domains shown)
VH: B1 VH with I34L, M50I, L63V, V71K, Y101W, G103A
VL: B1 VL with D28S, H32N, I51T, S91E, K92H
notes: Fab with human IgG2 CH1 and human kappa constant domain; His tag at the heavy chain C terminus in the E. coli format; also called Fab E3; 3E Fab
IC50, human NGF-dependent survival of mouse E13.5 trigeminal neurons (1.5 pM NGF) [4]: < 1.2 pM | IC50, human NGF-dependent survival of mouse E13.5 trigeminal neurons (15 pM NGF) [4]: < 21 pM | IC50, rat NGF-dependent survival of mouse E13.5 trigeminal neurons (1.5 pM NGF) [5]: < 1.3 pM | IC50, rat NGF-dependent survival of mouse E13.5 trigeminal neurons (15 pM NGF) [5]: < 8.3 pM | IC50 (read off the curve), NGF-dependent survival of E13.5 mouse trigeminal neurons (0.4 ng/ml human NGF, 48 h) [9]: ~0.02 nM binding sites | IC50, rat NGF-dependent survival of mouse E13.5 trigeminal neurons (15 pM NGF) [10]: ~31.6 pM

Kd [1]: ~1 nM | koff [2]: 0.00011 s⁻¹ | Kd [11]: ~2.75 nM | koff [12]: 0.00011 s⁻¹
B4: H19-L129 (combined clone, H1 H2 L1 L2 matured) (Fab, V domains shown)
VH: B1 VH with I34L, M50I, L63V, V71K
VL: B1 VL with D28S, H32N, I51T
notes: See note of m8; also called H19-L129 Fab; Fab H19-L129
IC50, human NGF-dependent survival of mouse E13.5 trigeminal neurons (1.5 pM NGF) [4]: 9.6 pM | IC50, human NGF-dependent survival of mouse E13.5 trigeminal neurons (15 pM NGF) [4]: 60.1 pM | IC50, rat NGF-dependent survival of mouse E13.5 trigeminal neurons (1.5 pM NGF) [5]: 6 pM | IC50, rat NGF-dependent survival of mouse E13.5 trigeminal neurons (15 pM NGF) [5]: 31 pM

koff [2]: 0.0001 s⁻¹ | Kd [13]: 2.5 nM
B5: 8L2-6D5 template Fab with L_S91E; L_K92R and H_Y101W; H_G103A (Fab, V domains shown)
VH: B1 VH with V71K, Y101W, G103A
VL: B1 VL with S91E, K92R
notes: See note of m8

Kd [1]: ~15 nM | Kd [14]: 25 nM | koff [15]: 0.001 s⁻¹ | Kd [16]: 25 nM | koff [2]: 0.001 s⁻¹ | koff [17]: 0.001 s⁻¹ | Kd [3]: 25 nM
B6: 8L2-6D5 (CDR-grafted antibody with framework mutation V71K) (Fab, V domains shown)
VH: B1 VH with V71K
VL: B1 VL
notes: Fab (human IgG2 CH1 + C-kappa, His tag at heavy chain C terminus); also called 8L2-6D5 Fab; 8L2-6D5 (control)
IC50, human NGF-dependent survival of mouse E13.5 trigeminal neurons (1.5 pM NGF) [4]: 462 pM | IC50, human NGF-dependent survival of mouse E13.5 trigeminal neurons (15 pM NGF) [4]: 1580 pM | IC50, rat NGF-dependent survival of mouse E13.5 trigeminal neurons (1.5 pM NGF) [5]: 169 pM | IC50, rat NGF-dependent survival of mouse E13.5 trigeminal neurons (15 pM NGF) [5]: 730 pM

Kd [18]: ~0.35 nM | koff [18]: ~1.4e-05 s⁻¹ | koff [2]: 1.4e-05 s⁻¹ | Kd [3]: 0.35 nM
B7: clone 3C (Fab) (Fab, V domains shown)
VH: B1 VH with I34L, M50I, L63V, V71K, Y101W, G103A
VL: B1 VL with D28S, H32N, I51T, S91E, K92R
notes: same L1, L2, H1, H2 mutations as 3E; See note of m8; also called Fab 3C
IC50, human NGF-dependent survival of mouse E13.5 trigeminal neurons (1.5 pM NGF) [4]: 5.6 pM | IC50, human NGF-dependent survival of mouse E13.5 trigeminal neurons (15 pM NGF) [4]: 80.9 pM | IC50, rat NGF-dependent survival of mouse E13.5 trigeminal neurons (1.5 pM NGF) [5]: 6 pM | IC50, rat NGF-dependent survival of mouse E13.5 trigeminal neurons (15 pM NGF) [5]: 31.6 pM
